The text below walks through data of patent publication US8299028B2, “Chimeric peptide antagonist for GPCR135 or GPCR142” (Janssen Pharmaceutica NV, priority 2007, dated 2012).

One assay deals with T1, human LGR7 (Homo sapiens, UniProt Q9HBX9).
T1 sequence (Q9HBX9 1-757): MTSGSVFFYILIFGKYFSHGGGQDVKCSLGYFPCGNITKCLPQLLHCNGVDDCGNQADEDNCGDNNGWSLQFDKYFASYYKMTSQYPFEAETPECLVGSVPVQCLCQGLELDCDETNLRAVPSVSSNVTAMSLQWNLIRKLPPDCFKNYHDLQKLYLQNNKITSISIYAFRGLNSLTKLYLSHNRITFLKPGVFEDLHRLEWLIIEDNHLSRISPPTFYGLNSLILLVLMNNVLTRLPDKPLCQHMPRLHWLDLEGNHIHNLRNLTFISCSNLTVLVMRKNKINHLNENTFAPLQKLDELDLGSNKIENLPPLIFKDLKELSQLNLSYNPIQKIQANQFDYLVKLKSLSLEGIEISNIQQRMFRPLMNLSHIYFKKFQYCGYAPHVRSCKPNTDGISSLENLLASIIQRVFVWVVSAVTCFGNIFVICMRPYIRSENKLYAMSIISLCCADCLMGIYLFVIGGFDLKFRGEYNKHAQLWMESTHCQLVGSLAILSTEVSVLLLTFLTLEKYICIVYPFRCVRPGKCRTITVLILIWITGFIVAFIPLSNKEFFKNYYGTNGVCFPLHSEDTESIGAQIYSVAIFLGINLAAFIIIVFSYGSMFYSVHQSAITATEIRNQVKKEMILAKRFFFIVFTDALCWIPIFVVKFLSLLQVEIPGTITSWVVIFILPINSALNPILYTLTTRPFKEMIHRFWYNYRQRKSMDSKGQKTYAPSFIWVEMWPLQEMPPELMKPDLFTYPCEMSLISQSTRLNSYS
Kind of assay: Radioligand binding assay, 125I-relaxin-2 tracer, COS-7 cells expressing LGR7. On the set-up: expressed in transfected cells. The source says: (§1) COS-7 cells in 24-well tissue culture plates transiently expressing GPCR135, GPCR142 or LGR7 were used in radioligand binding assays as described by Liu et al., 2005a, J. Biol. Chem., 280:292-300. ^125I-Relaxin-3/INSL5 (^125I-R3/I5), a radiolabeled chimeric peptide with the human relaxin-3 B-chain and the human INSL5 A-chain (Liu et al., 2005b), was used at a final concentration of 50 pM as the tracer to characterize the binding properties of all truncated relaxin-3 peptides for GPCR135 and GPCR142. ^125I-relaxin-2 (PerkinElmer Biosciences, Boston) was used at a final concentration of 50 pM to characterize the binding properties of the truncated peptides for the relaxin receptor (LGR7). The results were analyzed by GraphPad Prism 4.0 software (Graphpad, San Diego). The IC50 values, which are the ligand concentrations that inhibited 50% of the maximum specific binding, were then calculated.

Another assay addresses T2, human GPCR135 (Homo sapiens, UniProt Q9NSD7).
T2 sequence (Q9NSD7 1-469): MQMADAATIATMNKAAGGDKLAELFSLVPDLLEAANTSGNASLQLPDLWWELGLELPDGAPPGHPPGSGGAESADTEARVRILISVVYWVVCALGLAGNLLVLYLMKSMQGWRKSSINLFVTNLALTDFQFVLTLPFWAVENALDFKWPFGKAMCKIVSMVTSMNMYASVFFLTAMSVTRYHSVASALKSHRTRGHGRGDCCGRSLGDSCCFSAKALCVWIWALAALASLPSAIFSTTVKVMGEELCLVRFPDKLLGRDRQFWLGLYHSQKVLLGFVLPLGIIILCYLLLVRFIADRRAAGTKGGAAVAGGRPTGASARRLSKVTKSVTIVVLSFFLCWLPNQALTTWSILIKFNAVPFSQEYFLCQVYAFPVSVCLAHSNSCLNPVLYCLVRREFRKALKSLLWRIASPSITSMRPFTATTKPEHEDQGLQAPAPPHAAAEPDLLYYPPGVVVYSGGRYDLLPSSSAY
Kind of assay: Radioligand binding assay, 125I-R3/I5 tracer, COS-7 cells expressing GPCR135. The arrangement: expressed in transfected cells; host or cells: COS-7.
Excerpt: as §1

For “R3(BΔ23-27)R: Relaxin-3 mutant: B-chain SEQ ID NO:15 (Gly23-Trp27 deleted plus C-terminal Arg), relaxin-3 A-chain SEQ ID NO:13”, the “affinity of human LGR7” value with human LGR7 is given as “low affinity”. The “affinity of human GPCR135” value in the assay with human GPCR135 is recorded as “high affinities”.
